This test has as its target p65 (UniProt Q04206). Description: anti-FLAG co-IP, anti-p65 blot. As to conditions: reference: Flag-WT, IL-1β treated; sites S15.

As for “PRMT5 (from UniProt O14744) Flag-S15A, IL-1β treated”, the “binding against the reference” value is given as “weaker”.

For the origin of these results see paper PMC7279388.
